Measurements taken from US20210130452A1 (Merck KGaA, published 2021).

Key:
human IL-17A [1] = target: T1, human IL-17A (human, UniProt Q16552 24-155, biotinylated with Sulfo-NHS-LC-Biotin in the AlphaScreen assays only); assay: AlphaScreen competition, hIL-17A - IL-17RC-Fc;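 note: Read-out after 1 h at room temperature with the receptor Fc-fusion, Acceptor beads and streptavidin-coated Donor beads present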
T1 construct: also called hIL-17A; recombinant human IL-17A
Experimental: (§1) To this mixture, the IL-17RA or IL-17RC Fc-fusions, Acceptor beads and the streptavidin Donor beads were added and further incubated for 1 hour at RT.

human IL-17A [2] = target: T1, human IL-17A; assay: AlphaScreen competition, hIL-17A - IL-17RA-Fc;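 note: receptor Fc-fusion plus Acceptor and streptavidin Donor beads incubated with the mixture for 1 h at room temperature before reading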
Experimental: as §1

human IL-17F [3] = target: T2, human IL-17F (human, UniProt Q96PD4 31-163, biotinylated with Sulfo-NHS-LC-Biotin in the AlphaScreen assays only); assay: SPR Biacore, hIL-17F on chip; purified protein
T2 construct: also called hIL-17F; recombinant human IL-17F
T2 sequence: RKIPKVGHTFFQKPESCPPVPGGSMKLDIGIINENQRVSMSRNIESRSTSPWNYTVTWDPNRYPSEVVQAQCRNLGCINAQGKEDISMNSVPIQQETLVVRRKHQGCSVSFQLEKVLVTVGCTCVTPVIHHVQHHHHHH
Experimental: (§2) Off-rates of the periplasmic extracts containing anti-IL-17 Nanobodies were measured by Surface Plasmon Resonance (SPR) using a Biacore T100 instrument. […] Periplasmic extracts containing IL-17 neutralizing Nanobodies were injected for 2 minutes at a flow rate of 45 μl/min to allow binding to chip-bound antigen. Next, binding buffer without periplasmic extracts was sent over the chip at the same flow rate to allow spontaneous dissociation of bound Nanobody. From the sensorgrams obtained for the different periplasmic extracts koff-values (k₄) were calculated.

[4] = target: T3, human IL-17A/F heterodimer (human, UniProt Q16552 24-155; Q96PD4 31-163, limits assumed, biotinylated with Sulfo-NHS-LC-Biotin in the AlphaScreen assays only); assay: AlphaScreen competition, hIL-17A/F - IL-17RA-Fc
T3 construct: also called hIL-17A/F
Experimental: as §1

[5] = target: T3, human IL-17A/F heterodimer; assay: SPR Biacore, hIL-17A/F on chip; purified protein
[6] = target: T3, human IL-17A/F heterodimer; assay: AlphaScreen competition, hIL-17A/F - IL-17RC-Fc
Experimental: as §1

human IL-17F [7] = target: T2, human IL-17F; assay: cell-based or functional assay
[8] = target: T3, human IL-17A/F heterodimer; assay: cell-based or functional assay
human IL-17A [9] = target: T1, human IL-17A; assay: SPR Biacore, hIL-17A on chip; periplasmic extract (*)
Experimental: as §2

human IL-17F [10] = target: T2, human IL-17F; assay: AlphaScreen competition, hIL-17F - IL-17RC-Fc
Experimental: as §1

human IL-17A [11] = target: T1, human IL-17A; assay: cell-based or functional assay
human IL-17F [12] = target: T2, human IL-17F; assay: AlphaScreen competition, hIL-17F - IL-17RA-Fc
Experimental: as §1

mouse IL-17F = target: T4, mouse IL-17F (mouse, UniProt Q7TNI7 29-161); assay: ELISA, coated IL-17F;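 note: binding ELISA on coated antigen from various species, with bound Nanobodies revealed by an HRP-linked anti-myc antibody and esTMB substrate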
T4 sequence (looked up): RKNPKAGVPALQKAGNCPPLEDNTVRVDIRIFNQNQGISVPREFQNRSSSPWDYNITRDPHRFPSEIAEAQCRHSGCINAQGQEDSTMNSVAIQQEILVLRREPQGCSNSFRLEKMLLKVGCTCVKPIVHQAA
Experimental: (§3) Binding of a selected panel of anti-IL-17 Nanobodies to IL-17 of other species was assessed using a binding ELISA. […] HRP (horseradish peroxidase) conjugated anti-myc (Serotec, MCA 2200P) was used for detection using esTMB as substrate.

marmoset IL-17F = target: T5, marmoset IL-17F (marmoset, UniProt A6N6I9 31-163); assay: ELISA, coated IL-17F;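 note: binding ELISA on coated antigen from various species, with bound Nanobodies revealed by an HRP-linked anti-myc antibody and esTMB substrate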
T5 sequence (looked up): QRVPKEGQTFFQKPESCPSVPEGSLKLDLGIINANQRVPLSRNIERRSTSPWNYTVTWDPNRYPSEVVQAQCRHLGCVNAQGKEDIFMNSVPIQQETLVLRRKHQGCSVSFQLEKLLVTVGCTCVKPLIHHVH
Experimental: as §3

rat IL-17F = target: T6, rat IL-17F (rat, UniProt Q5BJ95 29-161); assay: ELISA, coated IL-17F;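 note: binding ELISA on coated antigen from various species, with bound Nanobodies revealed by an HRP-linked anti-myc antibody and esTMB substrate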
T6 sequence (looked up): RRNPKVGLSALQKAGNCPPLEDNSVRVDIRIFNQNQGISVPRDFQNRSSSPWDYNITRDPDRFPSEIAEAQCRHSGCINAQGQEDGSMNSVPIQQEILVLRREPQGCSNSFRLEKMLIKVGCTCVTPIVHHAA
Experimental: as §3

human IL-17F [13] = target: T7, human IL-17F (human, UniProt Q96PD4 31-163); assay: ELISA, coated IL-17F;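 note: binding ELISA on coated antigen from various species, with bound Nanobodies revealed by an HRP-linked anti-myc antibody and esTMB substrate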
T7 construct: GenBank AF384857, expressed in Hek293 as 6-His C-terminal tagged protein; also called hIL-17F; IL-17F-6HIS
T7 sequence: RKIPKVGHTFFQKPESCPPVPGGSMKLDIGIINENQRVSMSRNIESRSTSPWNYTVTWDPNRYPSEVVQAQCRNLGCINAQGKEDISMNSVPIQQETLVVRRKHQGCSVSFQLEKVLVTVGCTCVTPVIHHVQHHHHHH
Experimental: as §3

human IL-17A [14] = target: T8, human IL-17A (human, UniProt Q16552 24-155); assay: SPR, IL-17A-Nanobody complex over captured IL-17RA
T8 construct: secreted form (GenBank U32659) expressed in Hek293 with C-terminal 6-His; also called hIL-17A; IL-17A-6HIS
Text: The receptor (IL-17RA or IL-17RC) was captured via its human Fc-tail by an anti-human IgG-Fc antibody coated on the chip.

rat IL-17A = target: T9, rat IL-17A (rat, UniProt Q61453 18-150, limits assumed); assay: ELISA, coated IL-17A
T9 sequence (looked up): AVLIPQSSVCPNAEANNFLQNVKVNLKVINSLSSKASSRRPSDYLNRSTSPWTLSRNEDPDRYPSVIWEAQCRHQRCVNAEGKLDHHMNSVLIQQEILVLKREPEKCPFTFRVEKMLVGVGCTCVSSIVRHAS
Experimental: as §3

marmoset IL-17A = target: T10, marmoset IL-17A (marmoset, IL-17A is a disulfide-linked homodimer. One chain is given.); assay: ELISA, coated IL-17A
T10 chain: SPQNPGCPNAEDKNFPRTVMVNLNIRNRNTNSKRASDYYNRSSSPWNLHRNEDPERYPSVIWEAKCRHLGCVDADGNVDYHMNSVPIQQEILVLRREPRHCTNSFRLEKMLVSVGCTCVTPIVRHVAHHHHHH
Experimental: as §3

guinea pig IL-17A = guinea pig IL-17A (guinea pig); assay: ELISA, coated IL-17A
Experimental: as §3

human IL-17A [15] = target: T8, human IL-17A; assay: ELISA, coated IL-17A
Experimental: as §3

mouse IL-17A = target: T11, mouse IL-17A (mouse, UniProt Q62386 26-158); assay: ELISA, coated IL-17A
T11 sequence (looked up): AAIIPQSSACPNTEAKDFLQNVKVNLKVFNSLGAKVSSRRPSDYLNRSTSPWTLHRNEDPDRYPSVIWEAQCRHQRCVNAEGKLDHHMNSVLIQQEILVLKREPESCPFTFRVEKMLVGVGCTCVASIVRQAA
Experimental: as §3

human IL-17A [16] = target: T1, human IL-17A; assay: SPR Biacore, hIL-17A on chip; periplasmic extract (*); NB = no binding
Experimental: as §2

[17] = target: T12, human IL-17A/F heterodimer (human, UniProt Q16552 24-155; Q96PD4 31-163, limits assumed); assay: SPR (Biacore) off-rate
T12 construct: bought, made in E. coli (R&D Systems 5194-IL/CF); also called hIL-17A/F; hIL17A/F

human IL-17F [18] = target: T13, human IL-17F (human, UniProt Q96PD4 31-163); assay: SPR (Biacore) off-rate
T13 construct: made in Hek293 cells (GenBank AF384857); also called hIL-17F; hIL17F
T13 sequence: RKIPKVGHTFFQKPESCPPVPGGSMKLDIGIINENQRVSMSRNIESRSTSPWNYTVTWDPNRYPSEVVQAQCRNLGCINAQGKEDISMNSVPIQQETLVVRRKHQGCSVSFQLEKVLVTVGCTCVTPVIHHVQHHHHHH

T3 sequence (Q16552 24-155 limits assumed, chain 1 of 2, one chain of several): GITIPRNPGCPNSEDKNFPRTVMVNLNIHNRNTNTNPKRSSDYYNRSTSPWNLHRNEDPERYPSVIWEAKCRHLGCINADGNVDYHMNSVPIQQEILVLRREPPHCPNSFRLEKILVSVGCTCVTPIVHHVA
T12 sequence (Q16552 24-155 limits assumed, chain 1 of 2, one chain of several): as above
T1 sequence (Q16552 other isoform, or with tags, fused parts or gaps): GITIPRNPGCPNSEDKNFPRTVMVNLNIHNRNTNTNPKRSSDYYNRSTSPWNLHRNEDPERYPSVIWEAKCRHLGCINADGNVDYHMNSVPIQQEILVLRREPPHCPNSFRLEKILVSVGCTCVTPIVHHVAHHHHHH
T8 sequence (Q16552 other isoform, or with tags, fused parts or gaps): as above

B1: 10A04 (VHH)
VHH: EVQLVESGGGLVQPGGSLRLSCAASGFTFSSYWMYWVRQAPGKGLEWISALAPGGGNRYYAESVNGRFTISRDNAKNSLYLQMNSLKSEDTAVYYCAKDHNVGYRTGEYDYGGQGTQVTVSS
notes: Class 4 Nanobody (cross-reactive: anti-IL-17A, IL-17F and IL-17A/F); not shown: c-myc, His6 tag
Human IL-17A [1]
  IC50: > 250 nM
Human IL-17A [2]
  IC50: 78.1 nM
Human IL-17F [3]
  koff: 0.0048 s⁻¹
[4]
  IC50: 37.7 nM
[5]
  koff: 0.015 s⁻¹
[6]
  IC50: 15.6 nM
Human IL-17F [7]
  IL-17F-induced IL-6 production in HT-1080 cells, Emax: 102%
  IL-17F-induced IL-6 production in HT-1080 cells, IC50: 112 nM
[8]
  IL-17A/F-induced IL-6 production in HT-1080 cells, Emax: 79.5%
  IL-17A/F-induced IL-6 production in HT-1080 cells, IC50: 122 nM
Human IL-17A [9]
  koff: < 0.0002 s⁻¹
Human IL-17F [10]
  IC50: 0.22 nM
Human IL-17A [11]
  IL-17A-induced IL-6 production in HT-1080 cells, Emax: 31.5%
  IL-17A-induced IL-6 production in HT-1080 cells, IC50: 65.4 nM
Human IL-17F [12]
  IC50: 0.746 nM

B2: 11A06 (VHH)
VHH: EVQLVESGGGLVQPGESLRLSCKASGFSLDYYALGWFRQAPGKEREGISCITSSDASAYYTDSVKGRFTISRDNSKNTVYLQMNSLKTEDTAIYYCAAALLTCSSYYDAYTYWGQGTQVTVSS
notes: Class 2
Mouse IL-17F
  OD: 0.0455 OD
Marmoset IL-17F
  OD: 0.0225 OD
Rat IL-17F
  OD: 0.0045 OD
Human IL-17F [13]
  OD: 0.673 OD
Human IL-17A [14]
  % Biacore binding (IL-17A-NB)-IL-17RA: -0.35%
Rat IL-17A
  OD: 0.008 OD
Marmoset IL-17A
  OD: 1.71 OD
Guinea pig IL-17A
  OD: 0.007 OD
Human IL-17A [15]
  OD: 1.69 OD
Mouse IL-17A
  OD: 0.004 OD

B3: 08B07 (VHH)
VHH: EVQLVESGGGLVQPGGSLRLSCAASGRDFRVKNVGWIRQAPGKQRELVATITVGGSTNYADSAKGRFTISRDNAKNTVYLQMSSLKPEDTAVYYCNAVATVTDYTGTYSDGFWGQGTQVTVSS
notes: Class 3 Nanobody (anti-IL-17F); not shown: c-myc, His6 tag
Human IL-17A [16]
  binding result: no binding

B4: 07B11 (VHH)
VHH: EVQLVESGGGLVQAGGSLRLSCVASGRAFSSYVMGWFRQAPGMEREFVALIRWSDGITGYVDSVKGRFTISRDNAKNTVYLQMNSLKPEDTAVYYCAAAVRPGDYDYWGQGTQVTVSS
notes: as for B3
Human IL-17A [16]
  binding result: no binding

B5: 07B09 (VHH)
VHH: EVQLVESGGGLVQAGGSLRLSCGASGGTFSSYATGWFRQAPGKEREFVAVLRWSDGHTAYADSVKGRFTISRDGAKNTMYLQMSSLKPEDTAIYYCTTATRPGEWDYWGQGTQVTVSS
notes: as for B3
Human IL-17A [16]
  binding result: no binding

B6: 24G10 (VHH)
VHH: EVQLVESGGGLVQAGGSLRLSCGAAGGTFSSYATGWFRQAPGKEREFVAVFRWSDSHTAYADSVKGRFTISRDGAKNTLYLQMSSLKPEDTAIYYCTTATRPGEWDYWGQGTQVTVSS
notes: as for B3
Human IL-17A [16]
  binding result: no binding

B7: 24B08 (VHH)
VHH: EVQLVESGGGLVQAGGSLRLSCAVSGGTFSTYKMGWFRQAPGKEREIVARISTNGPTAYAEFVKGRFTVSRENTKNTVYLQMNSLNIEDTAVYYCAAGYDSLFAGYDYWGQGTQVTVSS
notes: as for B3
Human IL-17A [16]
  binding result: no binding

B8: 09G10 (VHH)
VHH: EVQLVESGGGLVQAGGSLRLSCAASDSVFTAKAVGWYRQPPGLQREWVAIITSGGKTNYADSSVKGRFTVSVDKVKNTVTLQMNSLKPEDTAVYYCYAQWMGRDYWGQGTQVTVSS
notes: Class 2
Marmoset IL-17F
  OD: 0.0045 OD
Rat IL-17F
  OD: 0.0025 OD
Human IL-17F [13]
  OD: -0.018 OD
Human IL-17A [14]
  % Biacore binding (IL-17A-NB)-IL-17RA: 2.05%
Rat IL-17A
  OD: 0.003 OD
Marmoset IL-17A
  OD: 1.58 OD
Guinea pig IL-17A
  OD: 0.006 OD
Human IL-17A [15]
  OD: 1.64 OD
Mouse IL-17A
  OD: -0.001 OD

B9: IL17MS3056 (VHH)
VHH: EVQLVESGGGLVQPGGSLRLSCAASGRTFSSYVVGWFRQAPGKEREFVGAISGSGDSIYYAVSEKDRFTISRDNSKNTLYLQMSSLRAEDTAVYYCTADQEFGYLRFGRSEYWGQGTLVTVSS
notes: variant of IL17MS16A04; Kabat numbering
[17]
  koff: 0.00288 s⁻¹
Human IL-17F [18]
  koff: 0.000514 s⁻¹

B10: IL17MS3054 (VHH)
VHH: EVQLVESGGGLVQPGGSLRLSCAASGRTFSSYVVGWFRQAPGKEREFIGAISGSGDSIYYAVSEKDRFTISRDNSKNTLYLQMSSLRPEDTAVYYCTADQEFGYLRFGRSEYWGQGTLVTVSS
notes: as for B9
[17]
  koff: 0.00308 s⁻¹
Human IL-17F [18]
  koff: 0.000459 s⁻¹

B11: IL17MS3055 (VHH)
VHH: EVQLVESGGGLVQPGGSLRLSCAASGRTFSSYVVGWFRQAPGKEREFIGAISGSGDSIYYAVSEKGRFTISRDNGKNTLYLQMNSLRAEDTAVYYCTADQEFGYLRFGRSEYWGQGTLVTVSS
[17]
  koff: 0.00332 s⁻¹
Human IL-17F [18]
  koff: 0.000493 s⁻¹

B12: 04B09 (VHH)
VHH: EVQLVESGGGLVQPGGSLRLSCAASGFTLGYYAIGWFRQAPGKEREGVSCDSSSDGDTYYANSVKGRFTISTDNGKNTVYLQMNSLKPEDTAVYYCATCTDWNYDYWGQGTQVTVSS
notes: Class 2
Marmoset IL-17F
  OD: 0.0025 OD
Rat IL-17F
  OD: 0.0015 OD
Human IL-17F [13]
  OD: -0.015 OD
Rat IL-17A
  OD: 0.001 OD
Guinea pig IL-17A
  OD: 0.006 OD
Mouse IL-17A
  OD: 0 OD
